According to patent US20230051715A1 (MABWELL THERAPEUTICS, published 2023):

What was measured:
[1] = biological target: T1, full-length human C1s (produced in house) (human, UniProt P09871 16-688); assay: ELISA, plate coated with 200 ng/well HuC1s, OD450nm
T1 construct: Called full-length; Partly auto-cleaved at R422-I423 on blots; also called HuC1s; Hu C1s
T1 sequence: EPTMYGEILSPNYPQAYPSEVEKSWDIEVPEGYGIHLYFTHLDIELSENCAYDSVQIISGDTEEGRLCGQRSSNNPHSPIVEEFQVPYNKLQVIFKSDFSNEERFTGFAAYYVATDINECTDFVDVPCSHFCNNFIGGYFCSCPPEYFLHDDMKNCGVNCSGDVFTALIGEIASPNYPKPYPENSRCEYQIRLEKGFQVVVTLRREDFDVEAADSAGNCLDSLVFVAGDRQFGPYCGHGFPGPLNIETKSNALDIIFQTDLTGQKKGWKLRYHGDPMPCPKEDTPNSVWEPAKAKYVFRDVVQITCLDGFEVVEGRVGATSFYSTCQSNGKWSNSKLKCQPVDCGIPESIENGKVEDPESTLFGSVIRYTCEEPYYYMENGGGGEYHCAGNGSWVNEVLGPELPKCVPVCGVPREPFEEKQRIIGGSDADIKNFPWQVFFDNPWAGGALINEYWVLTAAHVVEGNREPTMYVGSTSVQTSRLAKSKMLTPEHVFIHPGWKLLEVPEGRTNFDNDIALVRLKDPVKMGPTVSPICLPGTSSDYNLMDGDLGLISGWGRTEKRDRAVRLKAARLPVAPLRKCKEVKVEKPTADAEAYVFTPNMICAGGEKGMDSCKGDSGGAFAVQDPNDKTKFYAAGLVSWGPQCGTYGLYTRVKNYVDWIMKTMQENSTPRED
Description: (§1) The next morning, plates were blocked with SuperBlock T20 blocking buffer (Thermo Scientific 37536) for 1 h with gentle shaking. Then, various concentrations of anti-C1s antibodies diluted in SuperBlock T20 blocking buffer were added to the plates and incubated for 1 h with gentle shaking. Mouse IgG (Sigma-Aldrich I5381) and Human IgG1 (BioXCell BP0297) were used as negative controls. The plates were washed before incubating with HRP conjugated secondary antibodies diluted in SuperBlock T20 blocking buffer (goat anti-mouse IgG (H+L) cross-adsorbed secondary antibody HRP (Invitrogen G-21040) or goat anti-human IgG antibody, HRP conjugate (Millipore AP309P)) for 1 h with gentle shaking. At last, the plates were washed and color developed with ELISA liquid substrate (Sigma-Aldrich), followed by stopping the reaction with addition of the same volume of […] 1M H₂SO₄. Bound antibody was measured by absorbance at OD₄₅₀ₙₘ.

[2] = biological target: T2, human C1s proenzyme (CompTech A103) (human, UniProt P09871 16-688); assay: ELISA, C1s coated on plate
T2 construct: also called proenzyme human C1s (native C1s)
T2 sequence (looked up): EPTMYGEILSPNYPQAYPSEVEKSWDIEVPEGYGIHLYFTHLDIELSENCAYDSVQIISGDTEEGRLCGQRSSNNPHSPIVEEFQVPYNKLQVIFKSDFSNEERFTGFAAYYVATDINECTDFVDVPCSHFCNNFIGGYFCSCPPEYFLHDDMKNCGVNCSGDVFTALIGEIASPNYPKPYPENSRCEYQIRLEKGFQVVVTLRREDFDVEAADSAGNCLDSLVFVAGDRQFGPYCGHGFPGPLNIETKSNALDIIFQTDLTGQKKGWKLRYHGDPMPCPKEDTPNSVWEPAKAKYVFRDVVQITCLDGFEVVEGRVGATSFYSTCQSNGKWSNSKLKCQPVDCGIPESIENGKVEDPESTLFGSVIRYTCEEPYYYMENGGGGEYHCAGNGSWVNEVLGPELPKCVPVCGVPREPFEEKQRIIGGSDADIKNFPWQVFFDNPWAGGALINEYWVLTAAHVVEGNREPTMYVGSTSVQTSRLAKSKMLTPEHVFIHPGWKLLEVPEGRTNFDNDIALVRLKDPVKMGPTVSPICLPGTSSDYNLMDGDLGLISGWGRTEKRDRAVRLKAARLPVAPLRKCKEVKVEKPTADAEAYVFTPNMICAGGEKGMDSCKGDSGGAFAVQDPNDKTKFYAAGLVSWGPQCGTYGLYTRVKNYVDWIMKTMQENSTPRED
Description: (§2) ELISA was carried out by first coating 96-well plates with 200 ng/well of human active C1s (CompTech A104, FIG. 3F) or human C1s proenzyme (CompTech A103, FIG. 3G) proteins overnight. The next morning, plates were blocked with SuperBlock T20 blocking buffer (Thermo Fisher Scientific Inc., Catalog No. 37536) for 1 h with gentle shaking. Then, various concentrations of anti-C1s antibodies diluted in SuperBlock T20 blocking buffer were added to the plates and incubated for 1 h with gentle shaking. Human IgG1 (BioXCell BP0297) was used as a negative control. The plates were washed before incubating with HRP conjugated secondary antibodies diluted in SuperBlock T20 blocking buffer (goat anti-human IgG antibody, HRP conjugate (Millipore AP309P)) for 1 h with gentle shaking. At last, the plates were washed and color developed with ELISA liquid substrate (Sigma-Aldrich), followed by stopping the reaction with addition of the same volume of […] 1M H₂SO₄. Bound antibody was measured by absorbance at OD₄₅₀ₙₘ.
(§3) The EC₅₀ for each antibody and target combination was determined as follows: for antibody 2-7, EC₅₀ for human active C1s is 12 ng/ml and EC₅₀ for human C1s proenzyme is 9 ng/ml; for antibody 2-8, EC₅₀ for human active C1s is 12 ng/ml and EC₅₀ for human C1s proenzyme is 10 ng/ml; for variant hz2-7(1L2), EC₅₀ for human active C1s is 13 ng/ml and EC₅₀ for human C1s proenzyme is 12 ng/ml; and for variant hz2-8(H1L2 G80A/T82A), EC₅₀ for human active C1s is 10 ng/ml and EC₅₀ for human C1s proenzyme is 8 ng/ml.

[3] = biological target: T3, active human C1s (CompTech A104 C1s Enzyme) (human, UniProt P09871 16-688); assay: ELISA, C1s coated on plate
T3 construct: also called human active C1s; active C1s protein
T3 sequence (looked up): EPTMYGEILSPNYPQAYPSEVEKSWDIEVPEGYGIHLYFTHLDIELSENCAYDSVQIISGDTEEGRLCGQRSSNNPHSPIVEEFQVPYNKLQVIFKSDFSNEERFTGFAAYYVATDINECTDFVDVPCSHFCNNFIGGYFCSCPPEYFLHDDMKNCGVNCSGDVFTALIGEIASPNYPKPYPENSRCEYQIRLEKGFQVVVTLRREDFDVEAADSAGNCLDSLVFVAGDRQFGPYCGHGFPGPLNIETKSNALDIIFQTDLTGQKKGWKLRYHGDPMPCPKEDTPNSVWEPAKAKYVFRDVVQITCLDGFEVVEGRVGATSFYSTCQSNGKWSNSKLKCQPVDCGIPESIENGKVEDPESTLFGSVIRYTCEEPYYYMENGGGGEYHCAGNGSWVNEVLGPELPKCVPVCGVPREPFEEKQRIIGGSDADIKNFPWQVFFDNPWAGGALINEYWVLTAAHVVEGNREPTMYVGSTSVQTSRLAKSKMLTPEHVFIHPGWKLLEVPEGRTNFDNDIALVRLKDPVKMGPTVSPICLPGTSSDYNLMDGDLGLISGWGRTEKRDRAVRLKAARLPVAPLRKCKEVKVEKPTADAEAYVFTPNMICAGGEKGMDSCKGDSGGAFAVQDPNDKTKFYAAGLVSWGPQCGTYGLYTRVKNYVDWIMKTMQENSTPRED
Description: as §2, §3

[4] = biological target: T4, full-length mouse C1s (produced in house) (mouse, UniProt Q8CG14 16-688); assay: ELISA, plate coated with 200 ng/well MoC1s, OD450nm
T4 construct: Called full-length; also called MoC1s; moC1s
T4 sequence: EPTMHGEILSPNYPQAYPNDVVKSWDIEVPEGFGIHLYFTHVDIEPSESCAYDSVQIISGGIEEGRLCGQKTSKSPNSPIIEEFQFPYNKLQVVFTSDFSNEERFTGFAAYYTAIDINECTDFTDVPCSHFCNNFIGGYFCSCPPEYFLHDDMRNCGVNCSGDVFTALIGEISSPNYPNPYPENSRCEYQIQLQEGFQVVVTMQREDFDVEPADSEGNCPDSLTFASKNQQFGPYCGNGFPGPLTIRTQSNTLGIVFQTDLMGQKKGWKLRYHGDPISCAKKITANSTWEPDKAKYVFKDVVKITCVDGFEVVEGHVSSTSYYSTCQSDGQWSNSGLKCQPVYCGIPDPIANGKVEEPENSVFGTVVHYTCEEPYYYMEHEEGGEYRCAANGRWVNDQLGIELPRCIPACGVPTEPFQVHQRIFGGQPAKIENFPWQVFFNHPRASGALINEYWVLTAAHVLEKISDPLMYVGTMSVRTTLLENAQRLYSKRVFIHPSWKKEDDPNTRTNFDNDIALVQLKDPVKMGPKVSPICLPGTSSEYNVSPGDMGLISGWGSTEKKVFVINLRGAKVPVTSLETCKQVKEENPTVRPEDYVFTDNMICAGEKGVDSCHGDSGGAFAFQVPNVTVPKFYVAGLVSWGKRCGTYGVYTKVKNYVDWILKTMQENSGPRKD
Description: as §1

| Binder | EC50 [1] [ng/mL] | EC50 [2] [ng/mL] | EC50 [3] [ng/mL] | binding result [4] |
| --- | --- | --- | --- | --- |
| Anti-C1s antibody 2-8 (antibody, V domains shown, the HC/LC entries may hold it too; also called clone 2-8) VH: EVQLQQSGAELVRPGALVKLSCKASGFNIKEYYMHWVKQRPEQGLEWIGWIDPENGDTIYDPKFQGKASITADTSSNTAYLQLSSLTSEDTAVYYCARSRLFFAYWGQGTLVTVSA VL: DIVMTQSHKFMSTSVGDRVSFTCKASQDVRTAVDWYQQKPGQSPKLLIYSASYRYTGVPDRFTGTGSGTDFTFTISSVQAEDLAVYFCQQQYTTPYTFGGGTKLEIKT | 5 | 10 | 12 | no binding (tested: 1000 ng/ml (Log 3)) |
| Anti-C1s antibody hz2-7(H1L2) (antibody, V domains shown, Humanized, human IgG1 / kappa; also called hz2-7(1L2)) VH: EVQLLESGGGLVQPGGSLRLSCAASGFTFSNYFMNWVRQAPGKGLEWVSEIRLKFTNYATHYADSVKGRFTISRDDSKSTLYLQMNSLRAEDTAVYYCTRDYGSRNGYFDYWGQGTLVTVSS VL: DIVMTQTPLSLPVTPGEPASISCRSSKSLLHSNGNTFLYWFLQKPGQSPQLLIYRMSNLASGVPDRFSGSGSGTDFTLKISRVEAEDVGVYYCMQHLEYPYTFGGGTKLEIKR | 6 | 12 | 13 | no binding (tested: 1000 ng/ml (Log 3)) |
| Anti-C1s antibody hz2-8 (H1L2 G80A/T82A) (antibody, V domains shown, Humanized variant with G80A and T82A in HC CDR2 (already in the entry), human IgG1 / kappa) VH: QVQLVQSGAEVKKPGASVKVSCKASGFNIKEYYMHWVRQAPEQGLEWMGWIDPENADAIYAQKFQGRVTITADTSTNTAYMELSSLRSEDTAVYYCARSRLFFAYWGQGTLVTVSS VL: DIQMTQSPKSLSASVGDRVTITCRASQDVRTALDWYQQKPGQSPKLLIYSASYRYSGVPSRFSGSGSGTDFTLTISSLQPEDFATYYCQQQYTTPYTFGQGTKLEIKR | 4 | 8 | 10 | no binding (tested: 1000 ng/ml (Log 3)) |
| Anti-C1s antibody 2-7 (antibody, human IgG1, kappa, V domains shown, the HC/LC entries may hold it too; also called clone 2-7) VH: EVKLEESGGGLVPPGGSMKLSCVASGFTFSNYFMNWVRQSPEKGLEWVAEIRLKFTNYATHYAESVEGRFTISRDDSKSSVYLQMNNLRAEDTGIYYCTRDYGSRNGYFDYWGQGTTLTVSS VL: DIVMTQAAPSVPVTPGESVSISCRSSKSLLHSNGNTFLYWFLQRPGQSPQLLIYRMSNLASGVPDRFSGSGSGTAFTLRVSRVEAEDVGIYYCMQHLEYPYTFGGGTKLEIKT | 6 | 9 | 12 | no binding (tested: 1000 ng/ml (Log 3)) |
